Experiment in all cases: SPR
Background: SPR reads the build-up and loss of mass on a sensor chip optically.

The target of assay [1] is RG802 (Rituxan clone 802, glycosylated) (human).
In assay [2] the target is IgG1 (wild-type glycosylated IgG1) (human) [IgG part: P01857].
Assay [3] deals with RA801 (Fc domain of aglycosylated clone 801 constructed with the Fab arms of Rituxan) (human).
Assay [4] deals with RG801 (Fc domain of glycosylated clone 801 constructed with the Fab arms of Rituxan) (human).

In the case of “monomeric human FcRn–β2-microglobulin (from UniProt P55899 24-365; P61769 21-119) (complex)”, the Kd (in general, the constant that tells how readily two partners part at equilibrium) in assay [1] came to 0.289 µM; in assay [2] it was 0.623 µM; in assay [3] it was 0.959 µM; in assay [4] it was 0.283 µM.
The substance “human FcγRI (monomeric, soluble) (from UniProt P12314 16-292) (receptor)” displayed a dissociation constant Kd in assay [4] of 0.648 µM.

Values taken from publication PMC6015732.
